Publication PMC9352680, “A comprehensive thermodynamic model for RNA binding by the Saccharomyces cerevisiae Pumilio protein PUF4”

Target: T1, PUF4 RNA-binding domain (Saccharomyces cerevisiae, UniProt P25339 537-888)
T1 sequence: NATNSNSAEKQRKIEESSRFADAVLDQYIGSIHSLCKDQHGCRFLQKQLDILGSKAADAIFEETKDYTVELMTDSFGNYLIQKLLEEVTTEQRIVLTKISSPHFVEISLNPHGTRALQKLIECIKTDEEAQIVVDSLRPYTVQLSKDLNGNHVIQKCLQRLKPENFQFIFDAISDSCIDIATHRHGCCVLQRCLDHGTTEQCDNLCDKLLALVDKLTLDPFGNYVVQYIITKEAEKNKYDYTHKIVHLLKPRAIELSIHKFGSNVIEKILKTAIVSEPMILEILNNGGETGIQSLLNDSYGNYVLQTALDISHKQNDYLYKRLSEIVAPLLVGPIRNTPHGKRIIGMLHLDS
Experiment: Mg; RNA-MaP; 20 mM Na-HEPES pH 7.4, 30 mM KOAc, 0.75 mM MgCl2, 0.1% Tween-20, 5% glycerol, 0.1 mg/mL BSA, 2 mM DTT; 25 C; 0.0125-409.6 nM protein
Settings: tags: N-His6-TEV cleaved; C-SNAP kept, Cy3B-labelled; label: tethered on chip by stalled RNA polymerase

Binder	Kd [nM]
UCUCUUUGUAUUUGUAUCUCUU (ssRNA) [Ib_S1_P5E.1_K5.1_C5.1_H5.1_A5.1_[A7T]_F5.1_[T8G]_T5.1]	10.1
UCUCUUUGUAUAAAUAUCUCUU (ssRNA) [Ib_S1_P5E.1_K5.1_C5.1_H5.1_A5.1_[T6A]_F5.1_[T8A]_T5.1]	11.7
Id_ii_S2_P5E.2_K5.1_C5.2_H5.1_A5.1_F5.1_T5.2_[T11A] (ssRNA) RNA: UUUGAUUAAUAUGAUAUCGUUCUUUCUCUUGUAUUAUUAAAUUCUUUCUCGAUAUCAUAUUAAUCUUU	3.44
Id_ii_S2_P5E.3_K5.2_C5.2_[C-2G]_H5.2_A5.1_F5.1_T5.2_[T11C]_[A12T] (ssRNA) RNA: UUUGAUUAAUAUGAUAUCGUUCUUUCUGUUAUAUUAUUACUUUCUUUCUCGAUAUCAUAUUAAUCUUU	27.5
Id_ii_S2_P5E.3_K5.2_C5.2_[C-2T]_[T-1C]_H5.2_A5.1_F5.1_T5.2_[A12T] (ssRNA) RNA: UUUGAUUAAUAUGAUAUCGUUCUUUCUUCUAUAUUAUUAUUUUCUUUCUCGAUAUCAUAUUAAUCUUU	80.1
Id_ii_S2_P5E.3_K5.2_C5.2_[C-2G]_H5.2_A5.1_F5.1_T5.2_[T11C]_[A12C] (ssRNA) RNA: UUUGAUUAAUAUGAUAUCGUUCUUUCUGUUAUAUUAUUACCUUCUUUCUCGAUAUCAUAUUAAUCUUU	14.9
Id_ii_S2_P5E.3_K5.2_C5.2_[C-2G]_H5.2_A5.1_F5.1_T5.2_[A12T] (ssRNA) RNA: UUUGAUUAAUAUGAUAUCGUUCUUUCUGUUAUAUUAUUAUUUUCUUUCUCGAUAUCAUAUUAAUCUUU	11.7
Id_ii_S2_P5E.3_K5.2_C5.2_[C-2G]_[T-1C]_H5.2_A5.1_F5.1_T5.2_[T11C] (ssRNA) RNA: UUUGAUUAAUAUGAUAUCGUUCUUUCUGCUAUAUUAUUACAUUCUUUCUCGAUAUCAUAUUAAUCUUU	546
Id_ii_S2_P5E.3_K5.2_C5.2_[C-2T]_[T-1G]_H5.2_A5.1_F5.1_T5.2_[T11A] (ssRNA) RNA: UUUGAUUAAUAUGAUAUCGUUCUUUCUUGUAUAUUAUUAAAUUCUUUCUCGAUAUCAUAUUAAUCUUU	0.435
Id_ii_S2_P5E.3_K5.2_C5.2_[C-2G]_H5.2_A5.1_F5.1_T5.2_[A12C] (ssRNA) RNA: UUUGAUUAAUAUGAUAUCGUUCUUUCUGUUAUAUUAUUAUCUUCUUUCUCGAUAUCAUAUUAAUCUUU	16
Id_ii_S2_P5E.3_K5.2_C5.2_[C-2T]_[T-1A]_H5.2_A5.1_F5.1_T5.2_[T11A]_[A12C] (ssRNA) RNA: UUUGAUUAAUAUGAUAUCGUUCUUUCUUAUAUAUUAUUAACUUCUUUCUCGAUAUCAUAUUAAUCUUU	9.27
Id_ii_S2_P5E.3_K5.2_C5.2_[C-2T]_[T-1A]_H5.2_A5.1_F5.1_T5.2_[T11C] (ssRNA) RNA: UUUGAUUAAUAUGAUAUCGUUCUUUCUUAUAUAUUAUUACAUUCUUUCUCGAUAUCAUAUUAAUCUUU	14.5
Id_ii_S2_P5E.3_K5.2_C5.2_[C-2G]_[T-1C]_H5.2_A5.1_F5.1_T5.2_[T11C]_[A12T] (ssRNA) RNA: UUUGAUUAAUAUGAUAUCGUUCUUUCUGCUAUAUUAUUACUUUCUUUCUCGAUAUCAUAUUAAUCUUU	161
Id_ii_S2_P5E.3_K5.2_C5.2_[C-2T]_[T-1G]_H5.2_A5.1_F5.1_T5.2_[T11G]_[A12C] (ssRNA) RNA: UUUGAUUAAUAUGAUAUCGUUCUUUCUUGUAUAUUAUUAGCUUCUUUCUCGAUAUCAUAUUAAUCUUU	0.514
Id_ii_S2_P5E.3_K5.2_C5.2_[C-2G]_[T-1C]_H5.2_A5.1_F5.1_T5.2_[T11A] (ssRNA) RNA: UUUGAUUAAUAUGAUAUCGUUCUUUCUGCUAUAUUAUUAAAUUCUUUCUCGAUAUCAUAUUAAUCUUU	394
Id_ii_S2_P5E.3_K5.2_C5.2_[C-2T]_[T-1A]_H5.2_A5.1_F5.1_T5.2_[T11C]_[A12G] (ssRNA) RNA: UUUGAUUAAUAUGAUAUCGUUCUUUCUUAUAUAUUAUUACGUUCUUUCUCGAUAUCAUAUUAAUCUUU	19.5
Id_ii_S2_P5E.3_K5.2_C5.2_[C-2T]_[T-1C]_H5.2_A5.1_F5.1_T5.2_[T11A]_[A12G] (ssRNA) RNA: UUUGAUUAAUAUGAUAUCGUUCUUUCUUCUAUAUUAUUAAGUUCUUUCUCGAUAUCAUAUUAAUCUUU	> 2300
Id_ii_S2_P5E.3_K5.2_C5.2_[C-2G]_H5.2_A5.1_F5.1_T5.2_[T11A] (ssRNA) RNA: UUUGAUUAAUAUGAUAUCGUUCUUUCUGUUAUAUUAUUAAAUUCUUUCUCGAUAUCAUAUUAAUCUUU	21.3
Id_ii_S2_P5E.3_K5.2_C5.2_[C-2T]_[T-1A]_H5.2_A5.1_F5.1_T5.2_[T11G]_[A12C] (ssRNA) RNA: UUUGAUUAAUAUGAUAUCGUUCUUUCUUAUAUAUUAUUAGCUUCUUUCUCGAUAUCAUAUUAAUCUUU	13.9
Id_ii_S2_P5E.3_K5.2_C5.2_[C-2T]_[T-1C]_H5.2_A5.1_F5.1_T5.2_[T11A]_[A12C] (ssRNA) RNA: UUUGAUUAAUAUGAUAUCGUUCUUUCUUCUAUAUUAUUAACUUCUUUCUCGAUAUCAUAUUAAUCUUU	94.7
Id_ii_S2_P5E.3_K5.2_C5.2_[C-2T]_[T-1C]_H5.2_A5.1_F5.1_T5.2_[T11C]_[A12C] (ssRNA) RNA: UUUGAUUAAUAUGAUAUCGUUCUUUCUUCUAUAUUAUUACCUUCUUUCUCGAUAUCAUAUUAAUCUUU	65.6
Id_ii_S2_P5E.3_K5.2_C5.2_[C-2G]_[T-1C]_H5.2_A5.1_F5.1_T5.2_[T11C]_[A12G] (ssRNA) RNA: UUUGAUUAAUAUGAUAUCGUUCUUUCUGCUAUAUUAUUACGUUCUUUCUCGAUAUCAUAUUAAUCUUU	635
